Laboratory results as given in US10801046B2, “Methods and materials for biosynthesizing multifunctional, multivariate molecules via carbon chain modification” (INVISTA NORTH AMERICA S.A.R.L., priority 2016, dated 2020).

B1: SEQ ID NO: 121: Haematobacter missouriensis aminotransferase (protein, listed as Haematobacter missouriensis)
chain: MMDTLPNSLAARDVKYLLHPNTNARMHEQNGPMVISRGDGIHVYDDAGKEYIEALAGLWSVAVGFGEKRLVEAAQRQMSTLPYYHIFSSKSHEPAIDLAETLVKMTPEHLTRVFYTNSGSEANDTVVKMIWYYNNVLGRPEKKKIIARKNGYHGITVASASLTGLPINHKDFDLPLPQMKHVTTPHFYRFGEEGETEEQFSDRLAQEIEDMILAEGPETVAAFIGEPVIGAGGVLVPPKGYWEKVQKVLKKYDILLVADEVIMGFGRSGKTFACEYYGIKPDFLVLSKQITSSYQPLAAIMLTDAIYQAIADGSQKNGAFGHGYTASGHPVAMAVAIENLKIIEERGLVANAEKVGAYMQKRLREFADHPLVGEVRGVGLIAAVELVADKATKAKFDPVGKAGAIYTRKSAENGLINRAIGDTICFCPPLIITEAQVDEMIARFSKSLDETAAELKG
B2: SEQ ID NO: 172: Pseudomonas taiwanensis SJ9 aminotransferase (protein)
chain: MSQSNILLAKKDVQHHLHPYTDARLHQDVGPLIIDRGEGVYVFDVEGKRYIEAMSGLWSVALGFSNERLVKAAEQQMRKLPFYHIFTHKGHGPSIELAEKLIEIAPVPMSKVFFTNSGSEANDTVVKMIWYRNNALGKPEKKKFISRLNAYHGITAVSASLTGLPVNQRGFDVPLPGFHHVSCPHFYRNGQPGETEEQFADRMAAELESVILREGPETIAAFYGEPLMGAGGVIVPPRTYWEKMQAVCRKYDILIVADEVICGFGRTGKMFGCETFGIQPDVMVISKQMSSSYQPIAAILINEKVFEGIADQSRALGTLGHGFTASGHPVASAVALENIKIIQEQNLVGHAAEMGELLRAKLAGFADHPMVGEVRGCGLIAAVELVTDRKTKAPFETVGRLGRFLAARAQAHGMITRPIGDSIAFCPPLISTKQEIQEIADIFGKAFEDTERWFSQGGK
modifications: Pseudomonas taiwanensis SJ9
notes: Pseudomonas taiwanensis SJ9 aminotransferase
B3: SEQ ID NO: 168: Rhodospirillum centenum aminotransferase (protein)
chain: MPSTAPHLGNSIASRDIASLLHPYTNLKAHESVGPMVITGGRGVTVVDDAGREYIEGVAGLWCTSLGFDEPRLVEAAVRQLRTLPFYHAFAHKSHEPGIELAEKLVALAPVPMSKAFFACSGSEANDTAVKLVWYYNNALGRPQKKKIIGRIKAYHGVTVASASLTGLPNNHRDFDLPIDRILHTDCPHWYRFHEEGEDEEAFASRLAASLEALIQREGPETVAAFIAEPVMGAGGVIVPPRTYFEKIQAVLRKHDVLLIADEVICGFGRTGAMFGSETFGLKPDIMTMAKALTSAYMPLSAVLVSEPIYRACVAESEKIGVFGHGYTYSGHPVSCAVALETLKIYEERDIVAHTRAVGARLQEGLARYRSHPLVGEVRGVGLIAGVELVADKATRQPFDPKLGVAARLAGFAQGHGAILRPIGDTLGFSPPLIITPEEVDELVARFGRALDDTTAWLEHEHRFRPA
modifications: Rhodospirillum centenum (strain ATCC 51521 / SW)
notes: Rhodospirillum centenum aminotransferase
B4: SEQ ID NO: 138: Thalassospira profundimaris WP0211 aminotransferase (protein)
chain: MNHRPNSLHMSDIAHSMHPYTNMRLHEEKGPMIMAEGNGARVTDSEGKEYIEGLAGLWSVAVGFSETRLADAAYAQLKRLPYYHSFAHKAHEPSIRLAEKLVEMTPEGLNRVFFTNSGSEANDTVVKMAWFLNNGLGRPEKKKFLSRTKAYHGITIASGSLTGLAGNQKDFDLPAIPVTHLSCPHFWRYGEEGETETEFTARLLKELEDTIIAEGPETIAAFIGEPVMGAGGVMTPPEGYWPGVVEICHKYDILVVSDEVINGFGRTGARFGCEKYGFTPDILVTSKQLTSSYMPLAAIVVNDKVYNAIADNTAKLGNFGHGFTGTGHPVACAVGLENLNIIEERDLMGNAKRLEPMFQDGLRAFADHPLIGEIRGVGLIAGLEMADKKTKQPFGKPGTVAAKVVALAAEEGLICRNVYDTVALCPPLIVTEDDVREIHARLGRALDRALDWAKSEGML
modifications: Thalassospira profundimaris WP0211
notes: Thalassospira profundimaris WP0211 aminotransferase
B5: SEQ ID NO: 170: Acidimicrobium ferrooxidans aminotransferase (protein)
chain: MGRFWHPFGQLYESDTNPVVFVRGEGIWVYDDTGRRYLDATAALWYANVGHGRAEIADAIAAQARELAGYSTFGTFSNRPAEELAEFLSARSPMPESEVFFVSGGGDAVETAVKLARRYFSLVGQPERTVLISRTNGYHGTWGFGTSLGGIPANRTGFGELIPTTVQVPWDDVEAVEAAIVANGPERVAAVIAEPVIGAGGVYPPPPGYFEALGATCRRHGVLLIVDSVICGFGRLGTWFGIERLGVEPDLITFAKGVTSGYLPLGGVMVSGRVAAPFKQPGAPVFRHGPTYGGHPTCTAAGIANCRILEDEQILARGAVLEGELLARLRPLASSALVAEVRGGLGLLGAVELRSDLLAEHPDALARLARLALERGIIVRVLATSIALSPPLIIEPAEIGVIVEGLADALDALAAEL
modifications: Acidimicrobium ferrooxidans; Acidimicrobium ferrooxidans (strain DSM 10331 / JCM 15462 / NBRC 103882 / ICP)
notes: Acidimicrobium ferrooxidans aminotransferase
B6: SEQ ID NO: 171: Tistrella mobilis aminotransferase (protein)
chain: MAYSPNSPEARDIAYHLHSYTDARRHEETGSVVLEKGDGVFVEDIHGNRYIEAMAGLWSVALGFSEKRLADAAARQMAKLPFAHTFSYKSNGPVIDLAEKLISLAPVPMSKVFFTNSGSEANDTILKLLWYRSNSMGQPQRKKIISRVRGYHGVTIASASLTGLPNNHRSFDLPIANVLHTGSPHHWKDANPGESEEDFATRRAEELEAMILAEGPETIMAFIGEPVMGAGGVVVPPATYWEKIQAVLAKYDILLIADEVICGFGRTGNMFGSQTYDMRPDIMTMSKQLSSSYLPISAFMINEKVYGPIADESHRIGVLGHGFTAGGHPVASAVALENLKIIEERDLVANAREMGERLRGRFHALEGHPLVGEVRGVGLIAAVELVTNKEAKTALEAPGALGGKVAAALQARGVIVRNMLDAIAFCPPLIIKAEEVDMIADRFEAVLNDVAAEVL
modifications: Tistrella mobilis (strain KA081020-065)
notes: Tistrella mobilis aminotransferase
B7: SEQ ID NO: 169: Marine sediment metagenome aminotransferase (protein)
chain: MTVQPNSIEARDIAFHLHSYTNARKHETNGPVVIDKGEGVFVTDTDGNRYIEAMAGLWSVAVGFGEKRLVDAAAKQMGKLPYYHTFTHKSHSPAIELAEKLVAMAPVPMSKAYFTNSGSEANDTMMKLVRYRSNALGQPQKKKFISRMRGYHGVTLASASLTGLVNNHRDFDLPIEGVLHTTCPHYWREGRDGESEEDFATRCAEDLEAMIQAEGPETIAAFIGEPVMGAGGVVVPPATYWEKIQAVLKRHDILLVADEVICGFGRTGEMFGSQTYGIEPDIMTLSKALSSSYLPISALLINEKVYGPIADRSAEIGTLGTGYTASGHPVAAAVALENLKIIEERDLVGNAREMGTLMQCRLRELENHPLVGEVRGVGLIAAIELVTDKKAKVAMQPPGAMAAQAFAILQKNGVISRAIGDALAFCPPLIIEAGHIDTIVETTRRSLDELQASL
modifications: Description of Unknown: Marine sediment metagenome
notes: Marine sediment metagenome aminotransferase

experiment: In vivo aminotransferase activity screening, 7-aminoheptanoate by LC-MS; type: cell-based, Escherichia coli; conditions: in vivo conversion of 7-oxoheptanoate to 7-aminoheptanoate, 120 aminotransferases screened
Experimental: A 165-member aminotransferase library from Twist on IPTG-inducible T7- pUC expression vectors was co-transformed into T7 Express lysY/Iq with a constitutive expression pJ23150-derived plasmid bearing the phosphopantetheinyl transferase sfp from Bacillus subtilis, CAR_Srot from Invista and BioC from Serratia marcescens (UniprotKB Accession No. P36571 (SEQ ID NO: 165)). The resulting strains were incubated in 0.5 ml of rich media (terrific broth or LB containing 8% glycerol) supplemented with 0.4 mM IPTG and received 1 g/L monomethyl heptanedioate, 1 g/L heptanedioate, or no organic acid addition, depending on the experiment. Following incubation overnight at 37° C. in a shaking incubator, cells were pelleted and the supernatants were analyzed using LC-MS for 7-aminoheptanoate or monomethyl 7-aminoheptanoate. A Vibrio fluvialis aminotransferase (UniProtKB Accession No. F2XBU9 (SEQ ID NO: 128)) was used as a positive control.

Molecule | 7-aminoheptanoate yield compared to the positive control (F2XBU9)
B1 | higher 7-aminoheptanoate yields
B2 | higher 7-aminoheptanoate yields
B3 | higher 7-aminoheptanoate yields
B4 | higher 7-aminoheptanoate yields
B5 | higher 7-aminoheptanoate yields
B6 | higher 7-aminoheptanoate yields
B7 | higher 7-aminoheptanoate yields
